Data reported in patent publication US20220251207A1.

Target: human hCTLA4-RFP protein on 293 cells (human) (UniProt P16410)
Assay: flow cytometry of cell conjugates; 293-hCTLA4-RFP cells with 100 nM antibody, then five times as many 293-B7-1-GFP cells (B7-1 is the ligand tested for blocking); lower right quadrant (RFP+GFP-) 6.13

Chain of human hCTLA4-RFP protein on 293 cells (human) (P16410 36-223): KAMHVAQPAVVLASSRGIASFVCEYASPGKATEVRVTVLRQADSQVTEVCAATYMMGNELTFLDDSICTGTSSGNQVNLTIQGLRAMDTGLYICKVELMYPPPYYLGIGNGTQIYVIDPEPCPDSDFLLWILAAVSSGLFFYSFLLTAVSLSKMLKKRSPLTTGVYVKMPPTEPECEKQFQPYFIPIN

Substance: hIgG1 (antibody)
- % RFP+GFP+ events (upper right quadrant): 26.5%
